Series [1] deals with T1, PARP10 (Homo sapiens, UniProt Q53GL7).
T1 construct: ART domain, Asn819-Val1007
T1 sequence (Q53GL7 819-1007): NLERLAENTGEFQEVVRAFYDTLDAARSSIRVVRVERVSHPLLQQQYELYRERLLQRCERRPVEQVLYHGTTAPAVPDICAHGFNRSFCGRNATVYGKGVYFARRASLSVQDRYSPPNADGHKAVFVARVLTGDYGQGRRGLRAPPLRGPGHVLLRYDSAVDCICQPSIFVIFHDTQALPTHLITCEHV
Nature of the series: auto-MARylation assay with purified enzyme (MacroGreen overlay). The series is classed as biochemical.

Series [2] deals with T2, PARP15 (Homo sapiens, UniProt Q460N3, R576E).
T2 construct: ART domain, Asn481-Ala678
T2 sequence (Q460N3 481-678 R576E): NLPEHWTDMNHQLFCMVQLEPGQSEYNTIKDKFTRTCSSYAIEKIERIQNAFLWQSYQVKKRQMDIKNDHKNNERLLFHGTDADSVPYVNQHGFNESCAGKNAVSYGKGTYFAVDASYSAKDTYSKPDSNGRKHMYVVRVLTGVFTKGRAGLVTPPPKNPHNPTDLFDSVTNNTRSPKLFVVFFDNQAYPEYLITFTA
Put plainly: X-ray crystal structure; also nanoDSF thermal shift. The series is classed as binding.

The target of series [3] is T3, PARP15 (Homo sapiens, UniProt Q460N3, R576D).
T3 construct: ART domain, Asn481-Ala678
T3 sequence (Q460N3 481-678 R576D): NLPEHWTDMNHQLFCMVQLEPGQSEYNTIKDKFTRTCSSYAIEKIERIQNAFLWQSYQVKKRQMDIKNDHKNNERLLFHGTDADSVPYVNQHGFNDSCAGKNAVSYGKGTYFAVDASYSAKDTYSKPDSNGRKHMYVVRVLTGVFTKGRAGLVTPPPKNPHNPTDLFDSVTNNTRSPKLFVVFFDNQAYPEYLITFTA
Nature of the series: nanoDSF thermal shift at […] ligand. The series is classed as binding.

In series [4] the target is T2, PARP15. Nature of the series: ITC; also HDX-MS. The series is classed as binding. (In general: ITC needs no label: the signal is the heat of the interaction.)
Series [5] has as its target T4, PARP15 (Homo sapiens, UniProt Q460N3).
T4 construct: ART domain, Asn481-Ala678
T4 sequence (Q460N3 481-678): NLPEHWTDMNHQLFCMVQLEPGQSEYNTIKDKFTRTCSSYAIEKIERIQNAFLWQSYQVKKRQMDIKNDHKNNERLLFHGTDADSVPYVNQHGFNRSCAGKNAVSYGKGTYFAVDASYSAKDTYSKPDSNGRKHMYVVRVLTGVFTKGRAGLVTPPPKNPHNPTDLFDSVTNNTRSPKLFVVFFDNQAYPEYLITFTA
Put plainly: ITC; also HDX-MS. The series is classed as binding.

The target in series [6] is T5, human PARP15 ART domain (Asn481-Ala678), wild type (human) (UniProt Q460N3).
T5 sequence: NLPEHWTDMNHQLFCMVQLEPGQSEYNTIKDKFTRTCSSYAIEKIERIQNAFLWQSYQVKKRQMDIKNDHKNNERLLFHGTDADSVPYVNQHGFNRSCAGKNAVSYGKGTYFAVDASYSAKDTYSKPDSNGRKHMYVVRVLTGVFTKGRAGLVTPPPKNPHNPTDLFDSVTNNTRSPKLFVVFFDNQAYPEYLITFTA

Series [7] deals with the molecule itself. Put plainly: AUC; sedimentation velocity at 0.5 µM ART domain, 58,000 rpm for 5 h, measured at 220 nm, no NAD+; discrete model genetic algorithm (DMGA) analysis; dimer to monomers.
Series [8] deals with the molecule itself. Nature of the series: SEC-MALS; SEC-RALS/LALS (OMNISEC), Superdex 200 Increase 10/300 GL; 120 µl at 0.75 mg/ml PARP15 constructs, 0.35 mg/ml PARP14 ART, 0.65 mg/ml PARP10 ART; 50 mM HEPES pH 7.5, 300 mM NaCl, 1 mM TCEP. On the technique in general: SEC sorts molecules by how far they enter the pores of the column.
Series [9] concerns the molecule itself. Nature of the series: AUC; sedimentation velocity, 0.5 µM PARP15 ART, 58,000 rpm, measured at 220 nm; Discrete Model Genetic Algorithm fit, 100 Monte Carlo iterations; no NAD+ treatment; dimer to monomers.
Series [10] concerns the molecule itself. Nature of the series: AUC; sedimentation velocity at 9 µM protein, auto-MARylated and unmodified ART; 20 mM sodium phosphate pH 7, 150 mM NaCl; van Holde-Weischet analysis.
Series [11] deals with the molecule itself. Nature of the series: HDX-MS; 2 mg/ml m2-ART in 50 mM TBS pH 7.4, labelling 0-9000 s at 20 °C.

These results are taken from publication PMC12572374, “Regulation of ADP-ribosyltransferase activity by ART domain dimerization in PARP15” (Nature Communications, 2025).

As usually defined, the Kd is the constant that tells how readily two partners part at equilibrium. Read a high Kd as weaker binding. As a reminder, the stoichiometry N is the number of molecules, sites or subunits per partner or assembly.

`NC(=O)c1ccc[n+]([C@@H]2O[C@H](COP(=O)([O-])OP(=O)(O)OC[C@H]3O[C@@H](n4cnc5c(N)ncnc54)[C@H](O)[C@@H]3O)[C@@H](O)[C@H]2O)c1` [NAD+]: the “auto-MARylation assay with purified enzyme (MacroGreen overlay)” value in [1] is given as “PARP10 ART domain auto-modification increased in a roughly linear fashion over the entire concentration range”.
Regarding `NC(=O)c1cccc(N)c1` [3-aminobenzamide], in series [2], the “X-ray crystal structure; also nanoDSF thermal shift” value is “we crystallized the monomeric R576E mutant in complex with the nicotinamide analog 3-aminobenzamide (3AB)”. In series [3], the “nanoDSF thermal shift at 1 mM ligand” value was “thermal stabilities and ligand-induced Tm-shifts indicated they were properly folded”.
Consider `Nc1ncnc2c1ncn2[C@@H]1O[C@H](C(=O)N2CCN(CC(=O)Nc3cccc4c3CNC4=O)CC2)[C@@H](O)[C@H]1O` [EB-47], for which the results for the Kd in series [4] and in [5] were 47 µM and 24 µM, respectively.

B1: PARP15 ART domain (Asn481-Ala678) H559Y, catalytically inactive (domain or fragment)
chain: NLPEHWTDMNHQLFCMVQLEPGQSEYNTIKDKFTRTCSSYAIEKIERIQNAFLWQSYQVKKRQMDIKNDHKNNERLLFYGTDADSVPYVNQHGFNRSCAGKNAVSYGKGTYFAVDASYSAKDTYSKPDSNGRKHMYVVRVLTGVFTKGRAGLVTPPPKNPHNPTDLFDSVTNNTRSPKLFVVFFDNQAYPEYLITFTA
As to B1, in [6], the MARylation of plate-bound PARP15 macrodomain-2 by 250 nM wild-type ART with increasing H559Y (2-fold dilution series from 2 µM), MacroGreen overlay came to 500 nM.

B2: human PARP15 ART domain (Asn481-Ala678), wild type (domain or fragment, UniProt Q460N3 481-678, looked up)
chain: NLPEHWTDMNHQLFCMVQLEPGQSEYNTIKDKFTRTCSSYAIEKIERIQNAFLWQSYQVKKRQMDIKNDHKNNERLLFHGTDADSVPYVNQHGFNRSCAGKNAVSYGKGTYFAVDASYSAKDTYSKPDSNGRKHMYVVRVLTGVFTKGRAGLVTPPPKNPHNPTDLFDSVTNNTRSPKLFVVFFDNQAYPEYLITFTA
notes: PARP15, human, ADP-ribosyltransferase (ART) domain, residues Asn481-Ala678; numbers count on the canonical isoform (isoform 1); cDNA in pNIC-Bsa4 (GenBank EF198106 is the vector); also called PARP15 ART WT; WT PARP15; source: E. coli BL21(DE3), purified (HiTrap TALON, Superdex 75 SEC)
In the case of B2, the Kd in [7] was determined as 0.313 µM. In series [8], the “stoichiometry N” value came out at 2.

B3: human PARP15 ART domain (Asn481-Ala678), wild type (domain or fragment, UniProt Q460N3 481-678, looked up)
chain: NLPEHWTDMNHQLFCMVQLEPGQSEYNTIKDKFTRTCSSYAIEKIERIQNAFLWQSYQVKKRQMDIKNDHKNNERLLFHGTDADSVPYVNQHGFNRSCAGKNAVSYGKGTYFAVDASYSAKDTYSKPDSNGRKHMYVVRVLTGVFTKGRAGLVTPPPKNPHNPTDLFDSVTNNTRSPKLFVVFFDNQAYPEYLITFTA
notes: PARP15 (protein mono-ADP-ribosyltransferase PARP15), human, ART domain, residues Asn481-Ala678 of the canonical isoform (isoform 1); No tag cleavage is described; not copied; also called PARP15 ART WT; WT PARP15; source: E. coli BL21(DE3), purified (TALON IMAC, Superdex 75 SEC)
Take B3: the Kd in [9] was 0.313 µM.

B4: auto-MARylated PARP15 ART domain (Asn481-Ala678) (domain or fragment, human, UniProt Q460N3 481-678, looked up)
chain: NLPEHWTDMNHQLFCMVQLEPGQSEYNTIKDKFTRTCSSYAIEKIERIQNAFLWQSYQVKKRQMDIKNDHKNNERLLFHGTDADSVPYVNQHGFNRSCAGKNAVSYGKGTYFAVDASYSAKDTYSKPDSNGRKHMYVVRVLTGVFTKGRAGLVTPPPKNPHNPTDLFDSVTNNTRSPKLFVVFFDNQAYPEYLITFTA
modifications: mono-ADP-ribosylated by auto-modification with NAD+; sites not stated
notes: PARP15, human, ART domain, residues Asn481-Ala678 of the canonical isoform; same construct as m1 after auto-MARylation; source: E. coli BL21(DE3), purified; 40 µM incubated with 100 µM NAD+ for 1 h, NAD+ removed on a desalting column
Take B4: in series [10], the binding result is recorded as “binds”.

B5: PARP15 macrodomain-2 + ART domain construct (m2-ART; Gly287-Ala678) (domain or fragment, human, UniProt Q460N3 287-678, looked up)
chain: GTVSKPCFTAYEMKIGAITFQVATGDIATEQVDVIVNSTARTFNRKSGVSRAILEGAGQAVESECAVLAAQPHRDFIITPGGCLKCKIIIHVPGGKDVRKTVTSVLEECEQRKYTSVSLPAIGTGNAGKNPITVADNIIDAIVDFSSQHSTPSLKTVKVVIFQPELLNIFYDSMKKRDLSASLNFQSTFSMTTCNLPEHWTDMNHQLFCMVQLEPGQSEYNTIKDKFTRTCSSYAIEKIERIQNAFLWQSYQVKKRQMDIKNDHKNNERLLFHGTDADSVPYVNQHGFNRSCAGKNAVSYGKGTYFAVDASYSAKDTYSKPDSNGRKHMYVVRVLTGVFTKGRAGLVTPPPKNPHNPTDLFDSVTNNTRSPKLFVVFFDNQAYPEYLITFTA
notes: PARP15, human, macrodomain-2 and ART domain, residues Gly287-Ala678 of the canonical isoform (isoform 1); synthetic gene, codon optimised for E. coli, in pET151/TOPO; also called PARP15 m2-ART; PARP15 isoform-2 (m2-ART); source: E. coli BL21(DE3), purified (HiTrap TALON, Superdex 200 SEC, HiTrap SP XL cation exchange)
Consider B5, for which the binding result in series [11] was “binds”.
